Experiment [1] has as its target B42. Briefly: yeast two-hybrid liquid b-gal assay; activation hybrid alone (background control); four independent experiments.
Experiment [2] deals with B42-Mch5b-FDH-A (residues 3-80) (UniProt Q14790). Briefly: yeast two-hybrid liquid b-gal assay; four independent experiments.
The target in experiment [3] is B42-Mch5b-FDH-B (residues 102-177) (UniProt Q14790). Described as above.
Experiment [4] concerns the target B42-Mch5b-FDH (residues 3-177) (UniProt Q14790). Described as above.

Sequence of B42-Mch5b-FDH-A (residues 3-80) (Q14790 3-80, form in doubt): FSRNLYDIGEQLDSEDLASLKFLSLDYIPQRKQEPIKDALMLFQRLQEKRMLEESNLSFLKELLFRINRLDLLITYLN
Sequence of B42-Mch5b-FDH (residues 3-177) (Q14790 3-177, form in doubt): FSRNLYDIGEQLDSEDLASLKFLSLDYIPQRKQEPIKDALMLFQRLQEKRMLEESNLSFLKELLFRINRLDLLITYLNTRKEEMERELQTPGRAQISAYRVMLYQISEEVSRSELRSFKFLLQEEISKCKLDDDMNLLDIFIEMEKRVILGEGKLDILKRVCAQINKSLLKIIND
Sequence of B42-Mch5b-FDH-B (residues 102-177) (Q14790 102-177, form in doubt): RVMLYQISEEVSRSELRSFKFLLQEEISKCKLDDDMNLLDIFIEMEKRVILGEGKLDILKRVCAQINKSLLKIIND

Take “LexA-FLAME-1-FDH (residues 1-160) (from UniProt O15519 1-160)”: the Liquid assay b-gal activity in experiment [1] came out at 23.2 Miller units; in experiment [2], 52.7 Miller units; in experiment [3] it was 728 Miller units; in experiment [4] it was 300 Miller units.

The values above are taken from patent US20020086983A1.
